Each sequence was assayed on Escherichia coli TOP10 (assay: shrunken log2 fold change of peptide-encoding DNA abundance (4.5 h post-induction vs induction); higher = less antimicrobial activity (less host growth inhibition)). Settings: time post-induction: 4.5 h; library: site-saturation at positions 5, 18, 19, 20.
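Also: peptides expressed intracellularly from a pBAD plasmid library in pooled LB shake-flask culture, induced with 0.3% L-arabinose, DNA abundance read by NGS, three biological replicates, DESeq2 with apeglm shrinkage.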

| Sequence | shrunken log2 fold change |
| --- | --- |
| RRIRFRPPRLPRPRPRPCNRPRP | -0.111 |
| RRIRYRPPRLPRPRPRPQPDPRP | -0.0504 |
| RRIRNRPPRLPRPRPRPWHLPRP | -0.0913 |
| RRIRRRPPRLPRPRPRPQGGPRP | 0.0141 |
| RRIRFRPPRLPRPRPRPCTIPRP | -0.15 |
| RRIRIRPPRLPRPRPRPKDTPRP | -0.224 |
| RRIRCRPPRLPRPRPRPFMNPRP | -0.00951 |
| RRIRWRPPRLPRPRPRPELCPRP | 0.579 |
| RRIRPRPPRLPRPRPRPQVAPRP | -0.0363 |
| RRIRPRPPRLPRPRPRPPDRPRP | 0.583 |
| RRIRFRPPRLPRPRPRPLLAPRP | 0.176 |
| RRIRSRPPRLPRPRPRPMVKPRP | -0.0162 |
| RRIRLRPPRLPRPRPRPNMGPRP | -0.25 |
| RRIRERPPRLPRPRPRPQPMPRP | -0.185 |
| RRIRYRPPRLPRPRPRPRVRPRP | 0.175 |
| RRIRYRPPRLPRPRPRPYTTPRP | -0.554 |
| RRIRTRPPRLPRPRPRPGNKPRP | -0.0505 |
| RRIRSRPPRLPRPRPRPINQPRP | -0.657 |
| RRIRKRPPRLPRPRPRPKGKPRP | 0.302 |
| RRIRRRPPRLPRPRPRPMMAPRP | 0.142 |
| RRIRGRPPRLPRPRPRPIWTPRP | 0.352 |
| RRIRHRPPRLPRPRPRPYRIPRP | -0.231 |
| RRIRSRPPRLPRPRPRPMYPPRP | -0.124 |
| RRIRGRPPRLPRPRPRPHEAPRP | -0.000398 |
| RRIRDRPPRLPRPRPRPWQDPRP | -0.0397 |

| Sequence | shrunken log2 fold change |
| --- | --- |
| RRIRPRPPRLPRPRPRPNLMPRP | -0.0727 |
| RRIRFRPPRLPRPRPRPPGVPRP | 0.168 |
| RRIRCRPPRLPRPRPRPLNDPRP | 0.0553 |
| RRIRSRPPRLPRPRPRPQCQPRP | -0.146 |
| RRIRRRPPRLPRPRPRPETQPRP | 0.164 |
| RRIRGRPPRLPRPRPRPTCEPRP | 1.1 |
| RRIRERPPRLPRPRPRPVGNPRP | -0.191 |
| RRIRDRPPRLPRPRPRPEFWPRP | 1.02 |
| RRIRPRPPRLPRPRPRPWMAPRP | -0.113 |
| RRIRQRPPRLPRPRPRPWIEPRP | -0.0606 |
| RRIRVRPPRLPRPRPRPRWQPRP | 0.0341 |
| RRIRFRPPRLPRPRPRPTVTPRP | 0.052 |
| RRIRPRPPRLPRPRPRPHQMPRP | 0.0123 |
| RRIRWRPPRLPRPRPRPTMLPRP | 0.101 |
| RRIRFRPPRLPRPRPRPMTRPRP | -0.173 |
| RRIRRRPPRLPRPRPRPTTYPRP | -0.221 |
| RRIRVRPPRLPRPRPRPMCAPRP | 0.137 |
| RRIRNRPPRLPRPRPRPKRYPRP | 0.0391 |
| RRIRCRPPRLPRPRPRPNRFPRP | 2.96 |
| RRIRSRPPRLPRPRPRPNVMPRP | -0.204 |
| RRIRQRPPRLPRPRPRPKDIPRP | 0.0266 |
| RRIRGRPPRLPRPRPRPDKWPRP | 0.243 |
| RRIRARPPRLPRPRPRPTKLPRP | -0.00644 |
| RRIRKRPPRLPRPRPRPYMTPRP | -0.0252 |
| RRIRSRPPRLPRPRPRPYITPRP | -0.535 |

| Sequence | shrunken log2 fold change |
| --- | --- |
| RRIRSRPPRLPRPRPRPWWMPRP | -0.0399 |
| RRIRHRPPRLPRPRPRPDPHPRP | 0.000754 |
| RRIRIRPPRLPRPRPRPILIPRP | -0.097 |
| RRIRCRPPRLPRPRPRPMMIPRP | -0.044 |
| RRIRPRPPRLPRPRPRPDMPPRP | -0.302 |
| RRIRYRPPRLPRPRPRPLSCPRP | -0.0548 |
| RRIRRRPPRLPRPRPRPFFHPRP | 0.154 |
| RRIRCRPPRLPRPRPRPDLFPRP | 0.162 |
| RRIRCRPPRLPRPRPRPELNPRP | -0.137 |
| RRIRARPPRLPRPRPRPRVVPRP | 0.624 |
| RRIRMRPPRLPRPRPRPKRNPRP | 1.66 |
| RRIRSRPPRLPRPRPRPSVPPRP | -0.634 |
| RRIRVRPPRLPRPRPRPLGWPRP | 0.467 |
| RRIRCRPPRLPRPRPRPNQGPRP | -0.203 |
| RRIRRRPPRLPRPRPRPGISPRP | 0.0929 |
| RRIRIRPPRLPRPRPRPAGGPRP | 0.3 |
| RRIRYRPPRLPRPRPRPGSVPRP | -0.101 |
| RRIRGRPPRLPRPRPRPPKVPRP | 0.762 |
| RRIRLRPPRLPRPRPRPVSYPRP | -0.0976 |
| RRIRVRPPRLPRPRPRPSIIPRP | -0.384 |
| RRIRWRPPRLPRPRPRPFECPRP | -0.01 |
| RRIRTRPPRLPRPRPRPVMSPRP | -0.123 |
| RRIRARPPRLPRPRPRPCKKPRP | -0.0968 |
| RRIRSRPPRLPRPRPRPDVKPRP | -0.0928 |
| RRIRNRPPRLPRPRPRPRFLPRP | 0.0562 |
